B1: Membrane-associated guanylate kinase, WW and PDZ domain-containing protein 3, residues 287 to 329; numbered along this chain, Q5TCQ9 (parent)
chain: MRDETLEPLPKNWEMAYTDTGMIYFIDHNTKTTTWLDPRLCKK

Variants of: B1
Experiment: abundance fitness (aPCA) (normalised: wild type 0, dead -1); higher = more abundant; growth selection in yeast, the domain comes from the species named
Settings: Homo sapiens

Abundance fitness, by site and new letter:
L36: W -0.061; N -0.121; H -0.037; E -0.097; R -0.013
D37: K -0.407; A -0.436; E -0.556; W -0.616; I -1.04; Y -0.731; H -0.166; G -0.557; S -0.188; N -0.235; P -0.168; C -0.459; Q -0.486; V -0.926; R -0.263; M -1.02
R39: V -0.301; A -0.233; S -0.259; N -0.476; K -0.309; Q -0.417; L -0.349; I -0.332; M -0.33; T -0.22; E -0.244; D -0.317; G -0.314; P -0.516; C -0.322; F -0.635
T32: N -0.215; W -0.52; G -0.357; Y -0.417; K -0.303; V -0.082; Q -0.137; L -0.152; M -0.071; I -0.11; H -0.438; P -0.879; R -0.206
W35: F 0.074; E -0.361; H -0.447; Q -0.232; N -0.339; S -0.199; Y 0.126; T -0.104; L -0.146; C -0.222; P -0.34; V -0.291; D -0.359; R -0.266; I -0.257; M -0.16; G -0.341; A -0.248
L40: M -0.069; I -0.102; T -0.085; N 0.041; R -0.02; S -0.053; A -0.019; Y -0.193; G -0.028; K 0.016; Q -0.014; C -0.033; D -0.039; V 0; E 0.022; P -0.118
